Data taken from publication PMC10724926, “Characterization of an efficient N-oxygenase from Saccharothrix sp. and its application in the synthesis of azomycin” (Biotechnology for Biofuels and Bioproducts, 2023).
Like-named read-outs stand apart in the source and are kept apart here.

Legend:
Nc1ncc[nH]1 = test: purified protein; conditions: pH 5.5, 25 °C, 20 min, 10 µM enzyme, 2 mM FeSO4, 50 µM PMS, 5 mM NADH, 20 mM HEPES
SaRohS = test system: T1, SaRohS; test: HPLC of azomycin formed, Michaelis-Menten fit; assay type: biochemical, Saccharothrix sp.; conditions: pH 5.5, 25 °C, 20 min, 10 µM enzyme, 2 mM FeSO4, 50 µM PMS, 5 mM NADH, 20 mM HEPES
T1 construct: codon-optimised gene in pETDuet-28a+, E. coli BL21 (DE3), Ni-NTA purified
Text: HPLC of azomycin formed, Michaelis-Menten fit on SaRohS

| Km (SaRohS) [µM] | Km (SaRohS; read-out: G95A/K115T) [µM] | Km (SaRohS; read-out: T75A) [µM] | Compound | Km (Nc1ncc[nH]1) [µM] | kcat (Nc1ncc[nH]1) [s⁻¹] | kcat/Km (Nc1ncc[nH]1) [M⁻¹ s⁻¹] |
| --- | --- | --- | --- | --- | --- | --- |
|  |  |  | KaRohS (Kitasatospora azatica) | 390.55 ± 0.02 | 0.00383 ± 8.33e-05 | 10 |
| 182.69 ± 0.01 | 82.68 ± 0.001 | 924.17 ± 0.1 | Nc1ncc[nH]1 [2-aminoimidazole] |  |  |  |
